Data on 1 molecule can be found in patent US8933202B2, “AXL antibodies” (U3 Pharma GmbH, priority 2007, dated 2015).

One assay deals with Akt-Kinase. The assay is described as follows: Akt-Kinase (Ser473) phosphorylation ELISA. The assay is classed as cell-based. As to conditions: 400 ng/ml Gas6. How it is done: Furthermore, ELISA experiments were performed in order to investigate whether the rat anti-AXL antibodies of the invention are able to block ligand Gas6-mediated activation of Akt-Kinase. Gas6-mediated Akt-Kinase activation was detected by increased protein (Ser473) phosphorylation. In brief, on day 1. 2×10^4 cells per well were seeded in flat-bottom 96 well plates. The next day, normal growth medium was replaced by serum-reduced (DMEM, 0.5% FCS for NIH3T3-AXL cl.7 fibroblasts) or serum-free (for cancer cell lines) medium to starve cells for 36 h. […] Medium was flicked out and cells were fixed with 4% formaldehyde in PBS (pH 7.5) for 30 min at room temperature. Formaldehyde solution was removed and cells were washed twice with wash buffer (PBS, 0.1% Tween 20). […] Tetramethylbenzidine (TMB, Calbiochem) was added and monitored at 620 nm.
In order to investigate whether the rat anti-AXL antibodies of the invention and the corresponding chimeric anti-AXL antibodies of the invention were able to block ligand Gas6-mediated activation of the Akt-Kinase in NIH3T3-AXL cl.7 fibroblasts to similar extent, ELISA experiments were performed. Antibody-mediated Akt-Kinase inhibition was detected by decreased protein (Ser473) phosphorylation. […] Tetramethylbenzidine (TMB, Calbiochem) was added and monitored at 620 nm.

For assay [1], the system named is PC-3-LN prostate carcinoma. The assay is described as follows: Orthotopic prostate carcinoma xenograft model in nude mice. The assay is classed as in vivo, NMRI nu/nu mice. The method, then:
The anti-tumor efficacy of therapeutic antibodies is often evaluated in human xenograft tumor studies. In these model systems, human tumors grow as xenografts in immunocompromised mice and therapeutic efficacy is measured by the degree of tumor growth inhibition. The aim of this study was to evaluate whether the antagonistic rat anti-AXL antibody 11B7 of the invention interferes with tumor growth of human prostate cancer cells in nude mice. In brief, on day 0, 7-8 weeks old male NMRI^−nu/nu mice (approximate weight: 30 g after acclimatization) were anesthesized with 1.5-2.0 volume percent isoflurane at an oxygen flow rate of 2 l/min, and 1×10^6 PC-3-LN cells in 25 μl PBS were orthotopically implanted into the prostate. PC-3-LN cells are derived from the PC-3 prostate carcinoma cell line which was infected with a retrovirus coding for a luciferase-neomycin fusion protein. The onset of tumor growth and tumor growth progression was therefore measurable via in vivo bioluminescence imaging. For this purpose, luciferin was injected intraperitoneally (i.p.) into the mice and light emission was measured 10 min post injection using a NightOWL LB 981 bioluminescence imaging system (Berthold Technologies, Germany). Prior to first treatment, mice were randomized and statistical tests performed to assure uniformity in starting tumor volumes (mean, median and standard deviation) across the treatment groups of 10 animals each. On day 8, all treatments started and were continued until day 34, followed by necropsy on day 35. […] In the same experiment as described under “Rat anti-AXL antibodies of the invention reduce human prostate carcinoma growth in nude mice”, relocalization of PC-3-LN tumor cells into other organs (metastasis) was analyzed post necropsy to evaluate anti-metastatic effects of the antagonistic rat anti-AXL antibody 11B7 of the invention. […] Subsequently, light emission was measured using a NightOWL LB 981 bioluminescence imaging system (Berthold Technologies, Germany).

B1: 11B7: antagonistic rat anti-AXL monoclonal antibody, rat IgG1 (antibody, V domains shown)
VL: DIQMTQAPSSLPASLGDRVTITCRASQDIGNYLRWFQQKPGKSPRLMISGATNLAAGVPSRFSGSRSGSDYSLTISSLESEDMADYYCLQSKESPWTFGGGTKLELK
VH: EVQLQESGPGLVKPSQSLSLTCSVTGYSITSNYWGWIRKFPGDKMEWMGYITYSGSTSYNPSLKSRISITRDTSKNQFFLQLNSVTSEDTATYYCAITTFYYWGQGVMVTVSS
With B1, the “ligand-mediated Akt-Kinase activation, rat versus chimeric antibody” value in the assay on Akt-Kinase (50 ng/ml to 1 μg/ml (11B7, ch11B7) or to 10 μg/ml (11D5, ch11D5), NIH3T3-AXL cl.7) is reported as “able to inhibit ligand-mediated Akt-Kinase activation to similar extent”. Further, in the assay with Akt-Kinase (10 μg/ml antibody, NIH3T3-AXL cl.7 fibroblasts and CaLa-1 lung cancer cells), the “ligand-mediated Akt-Kinase activation (phosphorylation)” value is on record as “able to block or reduce ligand-mediated Akt-Kinase activation”. Further, the “overall growth of PC-3-LN prostate tumors (in vivo bioluminescence)” value in assay [1] (25 mg/kg i.p. 3x a week, day 8 to 34, compared to isotypic control antibody 1D5) was “reduced the overall growth of PC-3-LN prostate tumors”. In addition, in assay [1] (25 mg/kg i.p. 3x a week, post necropsy, compared to 1D5), the “occurrence of spleen metastases” value is reported as “reduced the occurrence of spleen metastases”. For the same molecule, the “anti-metastatic effect compared with Sutent” value in assay [1] (11B7 25 mg/kg i.p. versus Sutent 40 mg/kg p.o. daily, spleen) is “stronger than that of Sutent”.
